Measurements reported in article PMC9972897 (Science immunology, 2023).

Columns and labels:
[1] = target: SARS-CoV-2 S Omicron BA.4/BA.5, C-terminally truncated, expressed on 293T cells (SARS-CoV-2, Omicron BA.4/BA.5, strain); experiment: flow cytometry on cells; conditions: one partner purified
[2] = target: SARS-CoV-2 S Omicron BA.1, C-terminally truncated, expressed on 293T cells (SARS-CoV-2, Omicron BA.1 (B.1.1.529), strain); experiment: flow cytometry on cells; conditions: one partner purified
[3] = target: SD1-RBD of SARS-CoV-2 S, Gamma (SARS-CoV-2, Gamma (B.1.1.28.1), strain); experiment: ELISA; conditions: both partners purified
[4] = target: SD1-RBD of SARS-CoV-2 S, Omicron BA.1 (SARS-CoV-2, Omicron BA.1 (B.1.1.529), strain); experiment: ELISA; conditions: both partners purified
[5] = target: SD1-RBD of SARS-CoV-2 S, Omicron BA.4/BA.5 (SARS-CoV-2 Omicron BA.4/BA.5 (GenBank …, strain)); experiment: ELISA; conditions: both partners purified
[6] = target: SD1-RBD of SARS-CoV-2 S, Delta (SARS-CoV-2, Delta (B.1.617.2), strain); experiment: ELISA; conditions: both partners purified
[7] = target: SD1-RBD of SARS-CoV-2 S, Alpha (SARS-CoV-2, Alpha (B.1.1.7), strain); experiment: ELISA; conditions: both partners purified
[8] = target: SD1-RBD of SARS-CoV-2 S, Beta (SARS-CoV-2, Beta (B.1.351), strain); experiment: ELISA; conditions: both partners purified
[9] = target: SD1-RBD of SARS-CoV-2 S, Omicron BA.2 (SARS-CoV-2, Omicron BA.2, strain); experiment: ELISA; conditions: both partners purified
[10] = target: SD1-RBD of SARS-CoV-2 S, Omicron BA.2.75 (SARS-CoV-2 Omicron BA.2.75 (GenBank …, strain)); experiment: ELISA; conditions: both partners purified
[11] = target: SARS-CoV-2 S-2P ectodomain trimer (ancestral) (SARS-CoV-2 (ancestral, MN908947), stabilised); experiment: SPR; conditions: both partners purified

B1: fp.006 monoclonal antibody (IgG) (antibody, V domains shown)
VH: EVQLVESGGGVVQPGGSLRLSCAASGFNFNNYALHWVRQAPGKGLEWVAIISYEARNKKYGVSVMGRFSISRDNSKSIMYLEMNSLRVEDTGVYYCARDLFLSDYDRSGYDPTRGGFDHWGQGTLVTVSS
VL: EIVMTQSPATLSVSPGERATLSCRASQSVSSSLAWYQHRFGQAPRLLISGASTRATGIPGRFSGSGSGTEFTLTISSLQSEDVAVYYCQQYGDWPLVTFGGGTKVEIK
[1]
  fold increase of binding (gMFI) with soluble ACE2: 8.2 fold
[2]
  fold increase of binding (gMFI) with soluble ACE2: 5.3 fold

B2: hr2.016 monoclonal antibody (IgG) (antibody, V domains shown)
VH: EVQLLESGGGLVQPGGSLRLSCAASGFMFSKYAMTWVRQTPGKGLEWVSVISGGGGSTYYADSVKGRFTISRDNSKNTLYLQMNSLRAEDTAVYYCAKLLVVFVIDYWGQGALVTVSS
VL: EIVLTQSPGTLSLSPGERATLFCRASQSVSSNLAWYQQKPGRAPRLLISGASSRATGIPDRFSGSGSGTDFTLTISRLEPEDFAVYYCQQYGSSPPTFGQGTKVEIK
[1]
  fold increase of binding (gMFI) with soluble ACE2: 4.6 fold
[2]
  fold increase of binding (gMFI) with soluble ACE2: 4.9 fold

B3: sd1.040 monoclonal antibody (IgG) (antibody, V domains shown)
VH: QVQLVQSGAEVKKPGASVKVSCKASGYTFTSFYIHWVRQAPGQGLEWMGIIDPSGGSTSYPQKFQGRVTMTRDTSTSTVYMDLSSLRSEDTAVYYCTRDGSAGDNSWFDPWGQGTLVTVSS
VL: not shown
[3]
  binding result: binds
[4]
  binding result: binds
[5]
  binding result: binds
[6]
  binding result: binds
[7]
  binding result: binds
[8]
  binding result: binds
[9]
  binding result: binds
[10]
  binding result: binds

B4: sd1.040 Fab (Fab, V domains shown)
VH: B3 VH
VL: not shown
[11]
  Kd: 200 pM

B5: hr2.023 monoclonal antibody (IgG) (antibody, V domains shown)
VH: QVQLVQSGAEVKKPGASVKVSCRASENIFSDSYLHWVRQAPGQGLEWMGIITPSGDKTFYAQQFQGRLTMTRDTPTNTLHMDLRGLTSADTAIYYCARQATKGGWDYWGQGTLVTVSS
VL: EIVLTQSPGTLSLSPGESATLSCRASQSVTRNYLAWYQQQPGQAPRLLIYGASNRATGVPDRFSGSGSGTDFTLTISRLEPEDFAVYYCQQYGSSPPTFIFGPGTKVDIK
[1]
  fold increase of binding (gMFI) with soluble ACE2: 5.3 fold
[2]
  fold increase of binding (gMFI) with soluble ACE2: 5.8 fold
